Test results taken from the DeepSol protein solubility set.

Assay: soluble on expression in E. coli; label from the status in PepcDB or PDB records

Sequence	soluble on expression in E. coli
MGSDKIHHHHHHMVNNVDVYYEGWGERWQWGRLASSTALTGRPLIMFEYSEEAIRRGLELSSLRLPLNGPRLSRGFPSYQLGLPGPVYDALPDGWGMLLMDRLFRLRGLNTARIGPLERLTYIGSNAMGAMSFEPSQPEASAVSEDIPLAQLSAEVQEVLDGEGGEFLQRLLQMGGSPQGARPKALLYCDPDTKTLTTSAASGLDAWLFKFPAKQEHPEVCAIEAVYAQCLRECHIHTPDTEYIELPNGQAAFASRRFDRQNGLRIPMQSLAAFTEANYQSPGSLDYANFLRATQICTNDVREKVLAFERVVFNVIFNNRDDHTKNFAYIMSSSGQWKLAPAYDVTYCEGPGGYHQMDVMGEALEISRELIHRLGVQEADLTSSQVDIIIEQYGEVAASFAKRAAGMFPGCITQDTLRTIQDRINDNIRCLQKR	not soluble
MLFSLKYLGMTLVEQPKGEELSAAAIKRIVATAKASGKKLQKVTLKVSPRGIILTDNLTNQLIENVSIYRISYCTADKMHDKVFAYIAQSQHNQSLECHAFLCTKRKMAQAVTLTVAQAFKVAFEFWQVSKEEKEKRDKASQEGGDVLGARQDCTPPLKSLVATGNLLDLEETAKAPLSTVSANTTNMDEVPRPQALSGSSVVWELDDGLDEAFSRLAQSRTNPQVLDTGLTAQDMHYAQCLSPVDWDKPDSSGTEQDDLFSF	soluble
MRAVWVLGIDTSCDDTGVGLVRDGKVVVNLVASQVRLHEAFGGVVPELASREHLKALPLLVERALAEAGLRPKDLDLVAATRGPGLIGALLVGYTFAKGMAFALDRPFYAVHHLEGHIAAAWPEGLPPPFLALVASGGHTHLYEVLDLGRYRLLGATRDDAAGEAFDKVARLLGLGFPGGPEVERLAEEAEEAIPFPVPLRGQEGYDFSFSGLKTKALHLVEKGLPKAALAKGFQEAAIAHLAEVVLKAAKDTGHRVLLVAGGVAANRALQERFKEAGLEVHFPPRGLSQDNGAMIALAAWRRHQRGFPPSPLSLGATAYWPLEEA	soluble
MGSDKIHHHHHHMKKATDKNPTTTSKPNTITPLFTTNYNVYINHTDAGGIVYHANHLVFFENCRRDWFTQLGLNGYFLESNDGQIQHFVVTQADLQYKHAILLDEVINVRIDNVEIKPASIVFYQSIYRQQSQDNTANNAKAVLLSSTKIVVACVQNQITPDSIDNNASNNTAPMRPVRVPQKLRDAIERAIAEHIVEIL	not soluble
MGSDKIHHHHHHMMDWLYRYPPLYPGILLKRYKRFFADVQLTSGEIVTAHCPNTGPMTGVSTPQSAVQLSKSDNLNRKLAYTLELIQVHDNEPTWVGINTFLPNRVVKLALAKYLFPELGEYSQIKGEVVYGLDKKSRVDFFLTGSDEERPIYLEVKNTTLSEGRLALFPDTETTRGQKHLRELMALLPLTRAVMLYFINRGDCTEFSPGDRTDPVYGKLLRDAIALGLEVLPCRFDISPEGIRYLGLAKLKI	not soluble
MSLRVLKFGGTSVANAERFLRVADILESNARQGQVATVLSAPAKITNHLVAMIEKTISGQDALPNISDAERIFAELLTGLAAAQPGFPLAQLKTFVDQEFAQIKHVLHGISLLGQCPDSINAALICRGEKMSIAIMAGVLEARGHNVTVIDPVEKLLAVGHYLESTVDIAESTRRIAASRIPADHMVLMAGFTAGNEKGELVVLGRNGSDYSAAVLAACLRADCCEIWTDVDGVYTCDPRQVPDARLLKSMSYQEAMELSYFGAKVLHPRTITPIAQFQIPCLIKNTGNPQAPGTLIGASRDEDELPVKGISNLNNMAMFSVSGPGMKGMVGMAARVFAAMSRARISVVLITQSSSEYSISFCVPQSDCVRAERAMQEEFYLELKEGLLEPLAVTERLAIISVVGDGMRTLRGISAKFFAALARANINIVAIAQGSSERSISVVVNNDDATTGVRVTHQMLFNTDQVIEVFVIGVGGVGGALLEQLKRQQSWLKNKHIDLRVCGVANSKALLTNVHGLNLENWQEELAQAKEPFNLGRLIRLVKEYHLLNPVIVDCTSSQAVADQYADFLREGFHVVTPNKKANTSSMDYYHLLRHAAEKSRRKFLYDTNVGAGLPVIENLQNLLNAGDELMKFSGILSGSLSYIFGKLDEGMSFSEATTLAREMGYTEPDPRDDLSGMDVARKLLILARETGRELELADIEIEPVLPAEFNAEGDVAAFMANLSQLDDLFAARVAKARDEGKVLRYVGNIDEDGVCRVKIAEVDGNDPLFKVKNGENALAFYSHYYQPLPLVLRGYGAGNDVTAAGVFADLLRTLSWKLGVEGHHHHHH	soluble
MAGHSKWANTRHRKAAQDAKRGKIFTKIIRELVTAAKLGGGDPDANPRLRAAVDKALSNNMTRDTLNRAIARGVGGDDDANMETIIYEGYGPGGTAIMIECLSDNRNRTVAEVRHAFSKCGGNLGTDGSVAYLFSKKGVISFEKGDEDTIMEAALEAGAEDVVTYDDGAIDVYTAWEEMGKVRDALEAAGLKADSAEVSMIPSTKADMDAETAPKLMRLIDMLEDCDDVQEVYHNGEISDEVAATL	soluble
PIKVDGANINITAAIYDEIQQEMKRAKVSQALFAKVAANKSQGWLCELLRWKENPSPENRTLWENLCTIRRFLNLPQHERDVIYEEES	soluble
MSHINLYSLPTDHKNMIRCRYCEKIYKIDNGSSGFIRHLRCKHPNVLYQMGAISNGKEYNLITKQETLSIDTNNEINLRDDDDFMMMKEFSSNQILVNFLSQLDLPTNDVNRVLGKRHRISPTPTINSSVTPNEEHEPDLKMFNSGDTLQNFLIDIDNHIRQKNQESQEAIGTGEESTSASALDMPSSQKESREPSPNSSMLDETNGGTETGDSSPTPFNPARPFGCVICPCSFPRVKDLTIHVTSVHRTRFRCNTCLAEFVQPQHLEHHYSISHAGTSTGTVVNT	not soluble
MSLNITPHDQTGSQLQDSTLSQRAIQTVRYINNINDWRYNNPSQKDGVIPDSAFGWSSLPELHNVLQADRVYVYQPDQPGLMSALLAQSRHSALVGKVVARRLLDSFGNDMQVNVPDSIADGSLVYLNEGHHHHHH	soluble
MDKKPSILIFIVAYNAESTIENVLMRIPADLLDDFDAEVLVIDDQSSDDTVLRCAETIQSGKIRFKTNVLVNPENQGYGGNQKVGYQYAIEHDFDCVALLHGDGQYAPEYLRDLITPVTKGEAEAVFGSRMMTPFGALKGGMPAYKFVGNKILTLFQNIMLKTSLSEFHSGYRAYSVKALKQIPFHLNTPDFHFDTEIIIQLILWGFRIAERPIPTYYGDEICYVNGLKYALDVVITTTKARMQRLGLFHECKYEVIHPHNSNGYPEAKLSIKSPSGNRILEHHHHHH	not soluble
MSLNQRTLFDKIWDEHVVDVGADGTTLLYVDRHFLHEVTSPQAFRGLQLAGRRPWRSDANLAMPDHNVPTKDRAAHLDDALARAQIEALDRNCAEFAVPLFRLSDPRQGIVHVSGPEQGASLPGSVIVCGDSHTSTHGALATIAHGIGTSEVEHVLATQTLLARKPARMRVNFHGVAGAGVSAKDMALAMIAKVGAAGAQGYAIEYAGEAVRCLSVEARMTLCNMSIEAGARCGMVAVDDKTIEYLRGRPMAPRGESWDLAVRTWRALVSDHDAQFDVEIEIDVGMLGPLVTWGTSPDMVISVDEKIPDPAAEKDGTRRAGMERALRYMDLAPGTPITDVRLDRIFIGSCTNSRLEDLRAAAEVIRGKHVAASIRQALVVPGSGLVKQQAENEGLHQLFIDAGFEWRDAGCSMCVGMNADHLLSGERCASTSNRNFEDRQGVGGRTHLVSPAMAAAAAIAGHFVDIRRSEGHHHHHH	not soluble
MGSDKIHHHHHHMIDITDKQSCCGCSSCVQKCPRQCISLHEDTEGFLYPVVDKGDCIDCGLCEKVCPLLHWGEALVPMEVLAVKNKNQEERIHSSSGGVFIALSRQIIMDGGVVFGAVYDENWEVRITYSETLDGVRPMMGSKYLQARVETGFADAERFLKQGRYVLFSGTPCQIAGLHKYLRKDYPNLLSVDFLCHGVPSPGVWRRYLKETMSDLQSARRAAAGKNTVFPSLNVMPTIVGIEFRDKTLHGWKKYSFVVRGKSAFNADKNSVLLSDIHRENPFMRGFLSDIYLRPSCYECKCKNGVSHSDLTIADFWGIDRLMPDFDDDKGIGLALVNTVKGKQIFKRLSIDIRLSALSDVVALNGGFKEYRQPHPARLVFFRRFAVGETVESIVEDILRVPLWRRVMRNIKTFCKMIINRKQLTIIPLFIRRSKKRDK	not soluble
LQERELAKAAQEAEKKGEAFPDVPVTLYEAIVRDYTGRTPEAREQTLIVTHLNEDRRVLNSMIQDALAKPGEQQVTVPVLTTANIRDGELRRLSTWEAHPGALALVDNVYHRIAGISKEDGLITLEDKAGNTRLISPREAAAEGVTLYNPETIRVGAGDRMRFTKSDRERGYVANSVWTVTAVSGDSVTLSDGKQTRVVRPGQDRAEQHIDLAYAITAHSAQGASETFAIALEGTEGGRKQMAGFESAYVALSRMKQHVQVYTDDRQGWVKAINSAEQKGTAHDVLEPKSEREMMNAERLFSTARELRDVAAGRAVLRNAGLAQGDSRARFIAPGRKYPQPYVALPAFDRNGKSAGIWLNPLTTDDGAGLRGFTGEGRVKGSEEAQFVALQGSRNGESLLAGSMQDGVRIARENPDSGVVVRIVGDGRPWNPVAITGGRVWGDIPDSNVQPGAGNGEPVTAEILAQRQAEEAVRRETERRADEIVRKMAEDKSDLPEEKTAQAVREIAGQEQDRMTPPEREPPLPESVLREPQRER	not soluble
MSLPSEISDKATVPIEIGLTAAIVAIEANQPMILTASGDGGGSLAGLPYGPFDAITHRTLEIGLRAWVEEQTGLRLGYVEQLYTFGDRGRHARLGDTEVHVASIGYLALTRAADNAARAAGATFEPWYRFFPWEDWREQQPAIIARDIIPELTAWAAQAEEPGMARALARKDRVRLFFGVDGAPWDEERVLDRYELLYEAGLIEEARRDGRPAALSRSKAPTLGVAMRFDHRRILATAIARLRAKLKYRPVVFELLPPEFTLTELQHTVEAISGRHLHKQNFRRLVEAGALVEPTGEM	not soluble
MAHHHHHHMDPKEFVQRFPKSALSAKLVLSLEITEQRDFVVSLIDDAVYCDSWEAYFDFAERNNVAITEDVALAAVQAVGLDPLSAPLWVRAAACCESVESRKSLYEFGLSVPLHGWQRLFEEYRRCTDGHEDDHVLSETECWCVSNVLTAEKWPDRYAKLDTDTEAENVRQAWLELFACMLAGLASTAIARDLQLRRMELAMRQMCTQLPGDDSCWYQLALFQLCILEDAEAARKTVACGIAAAGSSFALENIASVADGVVGVSDSSGTSSADVLSATKALMQQRRAAEELALDGVTKDRVRALRSVGKAAAQQGLGDWKIFSQWRCAEDMAAHDTKMAAKVLENGMICCSHSPADALLLGSEAAQYHLLQRHEREALGYAEQQIEQQAELHHRGKILASWNSLVRIENLLGLSFSKAAKRRAELFPQNRISTFMENCRVGDYLPCDKSTFQWARFVEDYQVDKASVEETPFHGIAPPRNEAVAVKRLQQVECETPDDSQWEPFVPPLSCLPSREEENPDDVTGVRELRGKLVYRVKMDARTAARCQREKATRQRSMTGEKAVERGGALGALVRRVRPVNLTVGQTKRLQSVSADWVVHVLTVSELDLERTLKERAERQESHDMSV	not soluble
MANKNYQMSTGVTAVVQKVVEACQDESKRLDLIEIARSYPPNQLRNMQRTFQAITGTFLDAFLKKHLSKDFESLVLMLYKPRAQLLCELIRGATKGAGTDEKCLVDVLLTIETHEVREIRQLYYQLYNDSLGDVVRKDCGDKYMWAKLINAVATGDRIPRDTHELEEDLVLVRKAIETKGVKKDEVSTWIRIFATYTRADFRQLHKMYSAKYNGDSLRAGVEDEFQGLDEYAFKLAHDFLYDPCCAAAFSMNVAFAGSGSDSNRLNRITAMHFRECKGCKYYYKKVYGQAFDERCATELKGVYGDAIKLLWEPVTVPLLSMDDYQGSEQHRPMTLEL	soluble
MAHHHHHHMSLKAKLDVYPVENYTQTSVDVSNGHAGVAGNKVNLGAGSAAPFRPPSAIEKLLSLKKRCEEEPCVHSVEGVLLVHLHRHPHILLMKQINSRTRDADGMRTVPPSNTNAEVTYRLPGGRCRRGEAEESCLLRKLGRHLLNEAKTPAGAAEVASTGNSDTVVDVGMTHTASKAGSCFRVGEVLATWYRPHFTPHMYPYVPAHIAAGSVREVRTIYLVHLEPTVYFTMVQESVELVAAPLFDLYENSSKYGPIVASLPVLLSRVLINYCSTEY	not soluble
